Results from the supplement of paper PMC12667976.

B1: library; numbered along this chain (parent)
chain: MATDAALRRLLRLHRTEIAVAVDSAFPLLHALADHDVVPEDKFQETLHLKEKEGCPQAFHALLSWLLTQDSTAILDFWRVLFKDYNLERYGRLQPILDSFPKDVDLSQPRKGRKPPAVPKALVPPPRLPTKRKASEEARAAAPAALTPRGTASPGSQLKAKPPKKPESSAEQQRLPLGNGIQTMSASVQRAVAMSSGDVPGARGAVEGILIQQVFESGGSKKCIQVGGEFYTPSKFEDSGSGKNKARSSSGPKPLVRAKGAQGAAPGGGEARLGQQGSVPAPLALPSDPQLHQKNEDECAVCRDGGELICCDGCPRAFHLACLSPPLREIPSGTWRCSSCLQATVQEVQPRAEEPRPQEPPVETPLPPGLRSAGEEVRGPPGEPLAGMDTTLVYKHLPAPPSAAPLPGLDSSALHPLLCVGPEGQQNLAPGARCGVCGDGTDVLRCTHCAAAFHWRCHFPAGTSRPGTGLRCRSCSGDVTPAPVEGVLAPSPARLAPGPAKDDTASHEPALHRDDLESLLSEHTFDGILQWAIQSMARPAAPFPS

Variants of: B1
Experiment: AIRE transcriptional activation functional score (insulin promoter-GFP; nonsense median 0, synonymous median 1) (normalised score); higher = higher AIRE activity (more reporter activation)
Settings: with insulin promoter-GFP reporter in HEK293
Outline: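 Functional scores come from comparing select with non-select enrichment of each variant and subtracting wild type. Codon-optimized AIRE NNN-codon libraries across three regions were integrated via Bxb1 recombinase into HEK293 landing-pad cells with an insulin core promoter-GFP reporter, and integrants sorted at day 7 were expanded 7 days before top 10% GFP and unselected populations were tile-sequenced. Variants needed 10 counts per million in non-select, and values were rescaled to nonsense median 0 and synonymous median 1 before averaging over biological replicates.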

AIRE transcriptional activation functional score, by site and new letter:
L520: F 0.794 | E 0.103 | Q 0.36 | V 0.478 | I 1.23 | T 0.23 | D 0.849 | R 0.181 | K 0.452 | H 0.344 | G 0.375 | A 0.276 | C 0.467 | S -0.11 | P -0.00959
L519: N -0.347 | H -0.138 | E 0.874 | P 0.517 | G 0.259 | T 0.239 | A 0.739 | F 0.808 | Q 0.698 | W 0.904 | C 0.313 | R 0.267 | S 0.255 | V 0.315 | M 0.992 | D 0.255 | I 0.439 | Y 1.11
T524: S 1.61 | V 0.353 | A 0.636 | Y 1.4 | C 1.47 | Q 0.0994 | F 0.0783 | L -0.065 | M -0.346 | H -0.0688 | R 0.214 | W 0.629 | I 0.0345 | K 0.256 | P 0.528 | G 0.619
E522: T -0.656 | K 0.503 | I 0.133 | W -1.23 | D 0.925 | A -0.0825 | Q 1.03 | G 0.352 | C 0.0951 | R -0.0906 | S 0.0236 | F 0.252 | L -0.299 | V 0.236
S518: K 1.27 | N 0.216 | V 1.12 | I 0.907 | T 1.51 | Y 1.3 | P 0.384 | R 0.342 | L 1.04 | Q 1.77 | W 0.848
D526: C -0.576 | P -0.403 | A 0.225 | G 0.346 | T -0.207 | Y 1.02 | W -0.427 | E 0.925 | S -0.0693 | V -0.011 | F 0.421 | R -0.505 | N 0.21 | I 0.298 | K 0.177 | L -0.764
S521: I 0.551 | C 0.241 | V 0.258 | L 0.969 | W 0.299 | R 0.245 | T 1.08 | F 0.695 | G 0.548 | Q 0.377 | N 0.923 | A 0.824 | M 0.76 | K -0.211
F525: R -0.845 | H -0.0452 | T -0.259 | Q -0.479 | G 0.0436 | L 0.45 | D 0.0868 | A 0.406 | V 0.609 | C 0.0978 | I 0.367 | N -0.231 | E -1.43 | Y 0.369 | S -0.595 | P 0.141
H523: T 1.37 | L 0.222 | I 0.286 | D 0.678 | C -0.042 | K 0.199 | F 0.43 | V 0.847 | G 1.65 | Q 0.954 | R -0.128 | S 1.25 | N 1.28 | W -0.242 | Y 1.33
I528: N 0.204 | T 0.117 | R 0.161 | M 0.456 | P 0.0858 | K -0.0103 | F 0.795 | D 0.302 | S -0.0342 | L 0.543 | A 0.0102 | V 0.759 | Y 0.65 | W 1 | H -0.237 | C 0.179 | E 0.137 | Q 0.209 | G 0.149
G527: S 0.639 | L 0.0948 | A 0.391 | N 0.999 | H 0.494 | K 0.173 | F -0.224 | I 1.02 | W 0.875 | V 0.0961 | R 0.305 | M 0.725 | C 0.656
